Data reported in patent publication US20230128688A1, “DIRECTED CONJUGATION TECHNOLOGIES” (KLEO PHARMACEUTICALS, INC., priority 2019, published 2023).

Molecular target: T cell receptor (TCR)/CD3 on effector Jurkat T cells
Assay: cell-based or functional assay

EC50 of T cell activation (NFAT-RE luciferase luminescence in Jurkat effector cells), effector only condition: > 10 nM
EC50 of T cell activation (NFAT-RE luciferase luminescence in Jurkat effector cells), effector+target (Daudi) condition: 0.1 nM
Substance: III-1 (CD20×CD3; rituximab×SP34 scFv) (bispecific antibody)
